Test results from the supplement of paper PMC9112550, “Optimization of the antimicrobial peptide Bac7 by deep mutational scanning” (BMC Biology, 2022).

Tested on: Escherichia coli TOP10
Test: shrunken log2 fold change of peptide-encoding DNA abundance (4.5 h post-induction vs induction); higher = less antimicrobial activity (less host growth inhibition)
Conditions: time post-induction: 4.5 h; library: site-saturation at positions 5, 18, 19, 20
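Further: peptides expressed intracellularly from a pBAD plasmid library in pooled LB shake-flask culture, induced with 0.3% L-arabinose, DNA abundance read by NGS, three biological replicates, DESeq2 with apeglm shrinkage.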

## RRIRLRPPRLPRPRPRPFMPPRP
  shrunken log2 fold change: -0.195

## RRIRERPPRLPRPRPRPPEYPRP
  shrunken log2 fold change: -0.0278

## RRIRERPPRLPRPRPRPQEEPRP
  shrunken log2 fold change: -0.000946

## RRIRTRPPRLPRPRPRPDSIPRP
  shrunken log2 fold change: -0.0295

## RRIRKRPPRLPRPRPRPNMWPRP
  shrunken log2 fold change: -0.109

## RRIRSRPPRLPRPRPRPSHIPRP
  shrunken log2 fold change: -0.849

## RRIRFRPPRLPRPRPRPCSTPRP
  shrunken log2 fold change: -0.177

## RRIRIRPPRLPRPRPRPQEYPRP
  shrunken log2 fold change: -0.312

## RRIRERPPRLPRPRPRPTGKPRP
  shrunken log2 fold change: -0.0509

## RRIRIRPPRLPRPRPRPFYPPRP
  shrunken log2 fold change: -0.776

## RRIRKRPPRLPRPRPRPNAEPRP
  shrunken log2 fold change: 0.531

## RRIRARPPRLPRPRPRPDEQPRP
  shrunken log2 fold change: 0.0992

## RRIRFRPPRLPRPRPRPMYSPRP
  shrunken log2 fold change: -0.73

## RRIRSRPPRLPRPRPRPYTVPRP
  shrunken log2 fold change: -0.676

## RRIRMRPPRLPRPRPRPFNFPRP
  shrunken log2 fold change: -0.598

## RRIRCRPPRLPRPRPRPFEEPRP
  shrunken log2 fold change: -0.0957

## RRIRPRPPRLPRPRPRPRPGPRP
  shrunken log2 fold change: 0.555

## RRIRIRPPRLPRPRPRPHKTPRP
  shrunken log2 fold change: -0.000475

## RRIRRRPPRLPRPRPRPNCMPRP
  shrunken log2 fold change: 0.0934

## RRIRVRPPRLPRPRPRPAMAPRP
  shrunken log2 fold change: 0.418

## RRIRMRPPRLPRPRPRPLHQPRP
  shrunken log2 fold change: 0.0887

## RRIRGRPPRLPRPRPRPGHTPRP
  shrunken log2 fold change: 0.0237

## RRIRPRPPRLPRPRPRPIHCPRP
  shrunken log2 fold change: -0.125

## RRIRFRPPRLPRPRPRPRYMPRP
  shrunken log2 fold change: -0.689

## RRIRDRPPRLPRPRPRPNNGPRP
  shrunken log2 fold change: -0.0483

## RRIRFRPPRLPRPRPRPAIEPRP
  shrunken log2 fold change: 0.519

## RRIRKRPPRLPRPRPRPSQVPRP
  shrunken log2 fold change: 0.31

## RRIRERPPRLPRPRPRPCCHPRP
  shrunken log2 fold change: -0.603

## RRIRWRPPRLPRPRPRPEPPPRP
  shrunken log2 fold change: 0.977

## RRIRHRPPRLPRPRPRPLNDPRP
  shrunken log2 fold change: 0.00159

## RRIRWRPPRLPRPRPRPMVMPRP
  shrunken log2 fold change: -0.0614

## RRIRQRPPRLPRPRPRPYTHPRP
  shrunken log2 fold change: -0.723

## RRIRSRPPRLPRPRPRPFDTPRP
  shrunken log2 fold change: -0.201

## RRIRARPPRLPRPRPRPMRAPRP
  shrunken log2 fold change: 1.25

## RRIRARPPRLPRPRPRPPQCPRP
  shrunken log2 fold change: 0.585

## RRIRYRPPRLPRPRPRPTAGPRP
  shrunken log2 fold change: 0.111

## RRIRLRPPRLPRPRPRPGEQPRP
  shrunken log2 fold change: 0.0657

## RRIRMRPPRLPRPRPRPCCPPRP
  shrunken log2 fold change: -0.0946

## RRIRCRPPRLPRPRPRPCDPPRP
  shrunken log2 fold change: -0.0532

## RRIRGRPPRLPRPRPRPDHIPRP
  shrunken log2 fold change: 0.199

## RRIRPRPPRLPRPRPRPMRLPRP
  shrunken log2 fold change: 0.0536

## RRIRDRPPRLPRPRPRPWRIPRP
  shrunken log2 fold change: -0.139

## RRIRMRPPRLPRPRPRPHIYPRP
  shrunken log2 fold change: -0.289

## RRIRHRPPRLPRPRPRPAKSPRP
  shrunken log2 fold change: 0.076

## RRIRGRPPRLPRPRPRPRTGPRP
  shrunken log2 fold change: 0.617

## RRIRTRPPRLPRPRPRPFIIPRP
  shrunken log2 fold change: -0.919

## RRIRYRPPRLPRPRPRPRKWPRP
  shrunken log2 fold change: 0.149

## RRIRSRPPRLPRPRPRPGGQPRP
  shrunken log2 fold change: 0.279

## RRIRMRPPRLPRPRPRPIQHPRP
  shrunken log2 fold change: -0.124

## RRIRGRPPRLPRPRPRPGYSPRP
  shrunken log2 fold change: 2.2

## RRIRSRPPRLPRPRPRPRSYPRP
  shrunken log2 fold change: -0.066

## RRIRYRPPRLPRPRPRPEMLPRP
  shrunken log2 fold change: -0.0664

## RRIRDRPPRLPRPRPRPIDSPRP
  shrunken log2 fold change: -0.0258

## RRIRQRPPRLPRPRPRPMTSPRP
  shrunken log2 fold change: -0.000946

## RRIRWRPPRLPRPRPRPTLGPRP
  shrunken log2 fold change: 0.079

## RRIRMRPPRLPRPRPRPTIIPRP
  shrunken log2 fold change: -0.374

## RRIRKRPPRLPRPRPRPHAKPRP
  shrunken log2 fold change: 0.226

## RRIRMRPPRLPRPRPRPYADPRP
  shrunken log2 fold change: 0.419

## RRIRDRPPRLPRPRPRPRLWPRP
  shrunken log2 fold change: 0.842

## RRIRWRPPRLPRPRPRPHNCPRP
  shrunken log2 fold change: -0.349

## RRIRIRPPRLPRPRPRPAIAPRP
  shrunken log2 fold change: -0.206

## RRIRVRPPRLPRPRPRPQCGPRP
  shrunken log2 fold change: -0.0769

## RRIRKRPPRLPRPRPRPYCLPRP
  shrunken log2 fold change: -0.17

## RRIRRRPPRLPRPRPRPPYEPRP
  shrunken log2 fold change: 0.492

## RRIRERPPRLPRPRPRPAKFPRP
  shrunken log2 fold change: 0.112

## RRIRARPPRLPRPRPRPATVPRP
  shrunken log2 fold change: 0.214

## RRIRQRPPRLPRPRPRPQRGPRP
  shrunken log2 fold change: 0.235

## RRIRSRPPRLPRPRPRPGEVPRP
  shrunken log2 fold change: 0.223

## RRIRLRPPRLPRPRPRPKAAPRP
  shrunken log2 fold change: 0.679

## RRIRGRPPRLPRPRPRPLVLPRP
  shrunken log2 fold change: 0.401

## RRIRHRPPRLPRPRPRPVPMPRP
  shrunken log2 fold change: 0.0504

## RRIRTRPPRLPRPRPRPSAYPRP
  shrunken log2 fold change: -0.144

## RRIRRRPPRLPRPRPRPNDFPRP
  shrunken log2 fold change: -0.189

## RRIRARPPRLPRPRPRPLYLPRP
  shrunken log2 fold change: -0.367

## RRIRQRPPRLPRPRPRPHAGPRP
  shrunken log2 fold change: -0.084

## RRIRHRPPRLPRPRPRPGDLPRP
  shrunken log2 fold change: 0.163

## RRIRRRPPRLPRPRPRPPRVPRP
  shrunken log2 fold change: 1.18

## RRIRHRPPRLPRPRPRPMDAPRP
  shrunken log2 fold change: 0.00875

## RRIRGRPPRLPRPRPRPQFTPRP
  shrunken log2 fold change: 0.104

## RRIRERPPRLPRPRPRPAAMPRP
  shrunken log2 fold change: 0.102

## RRIRDRPPRLPRPRPRPLAPPRP
  shrunken log2 fold change: 0.607

## RRIRMRPPRLPRPRPRPSRHPRP
  shrunken log2 fold change: 0.228

## RRIRNRPPRLPRPRPRPEHHPRP
  shrunken log2 fold change: -0.114

## RRIRHRPPRLPRPRPRPCCNPRP
  shrunken log2 fold change: 0.0722

## RRIRRRPPRLPRPRPRPICAPRP
  shrunken log2 fold change: 0.127

## RRIRARPPRLPRPRPRPGKPPRP
  shrunken log2 fold change: 0.154

## RRIRDRPPRLPRPRPRPDILPRP
  shrunken log2 fold change: 0.111

## RRIRCRPPRLPRPRPRPCARPRP
  shrunken log2 fold change: 0.174

## RRIRWRPPRLPRPRPRPVHNPRP
  shrunken log2 fold change: -0.152

## RRIRNRPPRLPRPRPRPPIPPRP
  shrunken log2 fold change: -0.0646

## RRIRIRPPRLPRPRPRPQETPRP
  shrunken log2 fold change: -0.0344

## RRIRWRPPRLPRPRPRPNHNPRP
  shrunken log2 fold change: -0.681

## RRIRFRPPRLPRPRPRPWGMPRP
  shrunken log2 fold change: -0.171

## RRIRRRPPRLPRPRPRPTDHPRP
  shrunken log2 fold change: -0.235

## RRIRQRPPRLPRPRPRPRCVPRP
  shrunken log2 fold change: 1.47

## RRIRKRPPRLPRPRPRPNIMPRP
  shrunken log2 fold change: -0.189

## RRIRYRPPRLPRPRPRPLMHPRP
  shrunken log2 fold change: -1.02

## RRIRPRPPRLPRPRPRPYFHPRP
  shrunken log2 fold change: -0.522

## RRIRSRPPRLPRPRPRPNGDPRP
  shrunken log2 fold change: -0.0155

## RRIRLRPPRLPRPRPRPYFQPRP
  shrunken log2 fold change: -0.269

## RRIRKRPPRLPRPRPRPGTWPRP
  shrunken log2 fold change: 0.315

## RRIRLRPPRLPRPRPRPCLFPRP
  shrunken log2 fold change: -0.0955

## RRIRIRPPRLPRPRPRPGTMPRP
  shrunken log2 fold change: -0.112

## RRIRLRPPRLPRPRPRPVQMPRP
  shrunken log2 fold change: 3

## RRIRVRPPRLPRPRPRPNMMPRP
  shrunken log2 fold change: -0.248

## RRIRWRPPRLPRPRPRPRWSPRP
  shrunken log2 fold change: 0.372

## RRIRNRPPRLPRPRPRPAVTPRP
  shrunken log2 fold change: 0.0989

## RRIRMRPPRLPRPRPRPCGCPRP
  shrunken log2 fold change: 0.0371

## RRIRGRPPRLPRPRPRPTEAPRP
  shrunken log2 fold change: -0.0279

## RRIRERPPRLPRPRPRPCEFPRP
  shrunken log2 fold change: -0.283

## RRIRCRPPRLPRPRPRPVPWPRP
  shrunken log2 fold change: -0.139

## RRIRVRPPRLPRPRPRPLAVPRP
  shrunken log2 fold change: 0.33

## RRIRARPPRLPRPRPRPLGCPRP
  shrunken log2 fold change: 0.904

## RRIRFRPPRLPRPRPRPNRIPRP
  shrunken log2 fold change: -0.619

## RRIRVRPPRLPRPRPRPELIPRP
  shrunken log2 fold change: 0.0562

## RRIRYRPPRLPRPRPRPMRFPRP
  shrunken log2 fold change: 0.0781

## RRIRARPPRLPRPRPRPISYPRP
  shrunken log2 fold change: -0.545

## RRIRNRPPRLPRPRPRPHFLPRP
  shrunken log2 fold change: -0.217

## RRIRNRPPRLPRPRPRPQGCPRP
  shrunken log2 fold change: 0.0942

## RRIRTRPPRLPRPRPRPLRLPRP
  shrunken log2 fold change: 0.219

## RRIRYRPPRLPRPRPRPEKDPRP
  shrunken log2 fold change: 0.0236

## RRIRYRPPRLPRPRPRPFTSPRP
  shrunken log2 fold change: -0.0993

## RRIRERPPRLPRPRPRPAKHPRP
  shrunken log2 fold change: -0.107

## RRIRWRPPRLPRPRPRPWGYPRP
  shrunken log2 fold change: 0.0906

## RRIRWRPPRLPRPRPRPLEEPRP
  shrunken log2 fold change: 1.06

## RRIRSRPPRLPRPRPRPTDSPRP
  shrunken log2 fold change: -0.0593

## RRIRFRPPRLPRPRPRPYAQPRP
  shrunken log2 fold change: -0.533

## RRIRFRPPRLPRPRPRPVRAPRP
  shrunken log2 fold change: 0.495

## RRIRIRPPRLPRPRPRPKLEPRP
  shrunken log2 fold change: -0.136

## RRIRTRPPRLPRPRPRPKEGPRP
  shrunken log2 fold change: -0.0199

## RRIRSRPPRLPRPRPRPYFRPRP
  shrunken log2 fold change: -0.853

## RRIRSRPPRLPRPRPRPGWWPRP
  shrunken log2 fold change: 4.72

## RRIRIRPPRLPRPRPRPSSDPRP
  shrunken log2 fold change: 0.0499

## RRIRARPPRLPRPRPRPWRSPRP
  shrunken log2 fold change: 0.143

## RRIRYRPPRLPRPRPRPHMPPRP
  shrunken log2 fold change: -0.38

## RRIRLRPPRLPRPRPRPVWIPRP
  shrunken log2 fold change: 0.0148

## RRIRRRPPRLPRPRPRPPDTPRP
  shrunken log2 fold change: 0.436

## RRIRYRPPRLPRPRPRPRAAPRP
  shrunken log2 fold change: -0.0447

## RRIRLRPPRLPRPRPRPMGLPRP
  shrunken log2 fold change: 0.0182

## RRIRERPPRLPRPRPRPIANPRP
  shrunken log2 fold change: 0.158

## RRIRQRPPRLPRPRPRPFIIPRP
  shrunken log2 fold change: 0.043

## RRIRDRPPRLPRPRPRPLNFPRP
  shrunken log2 fold change: -0.139

## RRIRHRPPRLPRPRPRPNTQPRP
  shrunken log2 fold change: -0.248

## RRIRTRPPRLPRPRPRPKISPRP
  shrunken log2 fold change: -0.932

## RRIRYRPPRLPRPRPRPKKLPRP
  shrunken log2 fold change: -0.647

## RRIRTRPPRLPRPRPRPWTAPRP
  shrunken log2 fold change: -0.124

## RRIRGRPPRLPRPRPRPKHKPRP
  shrunken log2 fold change: 0.448

## RRIRPRPPRLPRPRPRPVMKPRP
  shrunken log2 fold change: -0.00931

## RRIRYRPPRLPRPRPRPAYCPRP
  shrunken log2 fold change: -0.0229

## RRIRQRPPRLPRPRPRPPAVPRP
  shrunken log2 fold change: 0.408
